In PMC10798635 one finds Kd data, which are given here for five substances.

The term pKd denotes the negative decadic logarithm of the Kd, by convention in mol/L. Read a high pKd as a low Kd.

pKd: −log10 of the molar value.

Common to all, as to conditions: room temperature 30-45 min, BLI: 20 mM Tris-HCl pH 7.4, 80 mM NaCl, 20 mM KCl, 1 mM DTT
Series [1] has as its system Hantavirus nucleocapsid protein (NP), wild type (Sin Nombre virus). The series can be described thus: filter binding.
For series [2] the test system is unchanged. The series can be described thus: filter binding. This is another data set of the same source.
For series [3] the test system is unchanged. The experiment in a line: filter binding. The source holds these as a separate data set.
Series [4] shares this test system. The series can be described thus: filter binding. The source holds these as a separate data set.
Series [5] has the same test system. The experiment in a line: BLI.

In series [1], Mutant 1 (VCP 5' UTR nt 1-542) gave a negative-log Kd (pKd) of 7.37. Consider Mutant 2 (VCP 5' UTR nt 542-988), for which the negative logarithm of the Kd (pKd) in series [1] is 5.72; in series [2], 5.80. Consider Mutant 3 (mutant 1 lacking nt 530-542), for which the negative logarithm of the Kd (pKd) in series [3] and in series [1] was 5.62 each time. In the case of “Mutant 4 (wild type UTR lacking nt 530-542)”, the pKd is 5.41 in series [1] and 5.85 in series [4]. For the substance VCP mRNA 5' UTR wild type, the figures for the pKd in series [5] and in series [1] were 7.60 and 7.33, respectively.
